Measured values from the supplement of paper PMC9170038.

Test system: MS2 coat protein
Assay: apparent KD of MS2 coat protein; designed switch direction (-1 OFF switch, 1 ON switch): -1; higher = weaker reporter binding
Summary of the method: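 For each design, the apparent KD is the median over clusters of curves fitted to normalised cluster fluorescence. Clusters held RNA switches with common flanks, transcribed on Illumina chips by stalled E. coli RNA polymerase. These were titrated with SNAP-549-labelled MS2 coat protein, doubling from 0.7 or 1.5 nM to 3 µM, without input, with 200 uM small-molecule ligand, or with an oligonucleotide input.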

[1] = input ligand: microRNA oligo, concentration not stated
[2] = Eterna round: R95, input ligand: FMN 200 uM
[3] = Eterna round: R95, input ligand: microRNA oligo, concentration not stated
[4] = Eterna round: R95, input ligand: none

| Sequence | apparent KD of MS2 coat protein (input ligand: FMN 200 uM) | apparent KD of MS2 coat protein (input ligand: none) | apparent KD of MS2 coat protein [1] | apparent KD of MS2 coat protein [2] | apparent KD of MS2 coat protein [3] | apparent KD of MS2 coat protein [4] |
| --- | --- | --- | --- | --- | --- | --- |
| AAUGCCAGUGUCAGGAUAUCCGGAGGGAAACCUCCGGAGAAGGGACAUGAGGAUCACCCAUGUAUGUAACCUGC [AK-MS2ROC-r4-Bmoexclusion4-7] (Eterna round: R97, puzzle: Brourd's mod of Exclusion 4) | 35.2 nM | 23.6 nM | – | – | – | – |
| AAUGGUAAAGUCAGGAUAUACGUAAAUCGUUCUAGGUAGAAGGGACAUGAGGAUCACCCAUGUAUGAUAGUAAA [Ex4 #32] (Eterna round: R97, puzzle: Brourd's mod of Exclusion 4) | 31.9 nM | 35.4 nM | – | – | – | – |
| AAUGGUAAAGUCAGGAUAUACGUACGUCGUUCUAGGUAGAAGGGACAUGAGGAUCACCCAUGUAUGAUAGUAAA [Ex4 #34] (Eterna round: R97, puzzle: Brourd's mod of Exclusion 4) | 24.1 nM | 32.9 nM | – | – | – | – |
| AAUGUGUGAGGAUAUUAAUUGUAAUUGAAUAGAAUUAUGAUUGAGAAGGCACAUGAGGAUCACCCAUGUUCCAA [JR_Ex4_Sub082] (Eterna round: R97, puzzle: Exclusion 4) | 187 nM | 31.2 nM | – | – | – | – |
| AAUGUUUGAUACCUUUAAUACAUGAGGAUCACCCAUGUUAUCGAGGAUAUGUAGAUGAAAUGAGAACAGAAGGCGAAGUAAGAG [JR_ExcNG3_Sub098] (Eterna round: R96, puzzle: Exclusion NG 3) | 19.5 nM | 24.4 nM | 9.73 nM | – | – | – |
| AAUUAACAAGCAGGAUCCUACAUGAGGAUCACCCAUGUGCUCGUCUUAUAAAGUACUAUCACGAAAGUGAUAGUACA [Mat - Sensor v3 - turn-off var 1 - Eli Mod - D74] (puzzle: Sensor v3, turn-off variant 1) | – | – | – | 224 nM | 566 nM | 197 nM |
| AAUUAACAAGCGAGAUCCUACAUGAGGAUCACCCAUGUGCUCGUCUUAUAAAGUACUAUCACGAAAGUGAUAGUACA [Mat - Sensor v3 - turn-off var 1 - Eli Mod - D64] (puzzle: Sensor v3, turn-off variant 1) | – | – | – | 21.8 nM | 215 nM | 19.5 nM |
| AAUUAACAUCAGGAUAUGACUAGCCUCGGCUAGUCAGAAGGGAUGACAUGAGGAUCACCCAUGUGAUCAAUUAA [E6/2-A2] (Eterna round: R97, puzzle: Exclusion 6) | 392 nM | 108 nM | – | – | – | – |
| AAUUAGCAAGCGAGAUCCCACAUGAGGAUCACCCAUGUGCUCGUCUUAUAAGGUACUGUGACAAAAGUCACGGUACC [Mat - Sensor, turn-off var - Eli Mod - D18] (Eterna round: R97, puzzle: Sensor, turn-off variant 1) | 17.9 nM | 18.1 nM | – | – | – | – |
| AAUUAGUGAGGAUAUACUAACAGUGAUAGUAGAUAGUGGAUGUAGAAGGCACAUGAGGAUCACCCAUGUUAUAA [EX4 #51] (Eterna round: R97, puzzle: Exclusion 4) | 39.1 nM | 33.5 nM | – | – | – | – |
| AAUUAUUAUUGAGGAUAUCGUAGUGAAACACUACGAGAAGGCGGUAUAAACAUGAGGAUCACCCAUGUGAGCCUGAUGCUUAUG [Ex NG1 #44] (Eterna round: R96, puzzle: Exclusion NG 1) | – | – | 20.6 nM | – | – | – |
| AAUUAUUAUUGAGGAUAUCGUAUUGAAACAAUACGAGAAGGCGGAAUAAACAUGAGGAUCACCCAUGUGAGCCUGAUGCUUAUG [Ex NG1 #43] (Eterna round: R96, puzzle: Exclusion NG 1) | – | – | 21.1 nM | – | – | – |
| AAUUAUUGAUGAGGAUAUUGUGGUGAAACACGACAAGAAGGCAUUUUUCACAUGAGGAUCACCCAUGUGAGCCUUGUGCAUAUA [Ex NG1 #62] (Eterna round: R96, puzzle: Exclusion NG 1) | 17.3 nM | 15.2 nM | 11.5 nM | – | – | – |
| AAUUCACAUGAGGAUCACCCAUGUCAGGAUAUGGUGACGCGGGUUUCGGUGCGUGUUGCCAGAAGGGACGGCUG (puzzle: Exclusion 1) | – | – | – | – | 92.4 nM | – |
| AAUUCACAUGAGGAUCACCCAUGUGAGGAUAUGGUUUCGCUGGCCGUAGCCAGUGGAACCAGAAGGCGCAUGAU [Mat - Exclusion 1 - JL Mod - D11] (Eterna round: R97, puzzle: Exclusion 1) | 30.7 nM | 28.9 nM | – | – | – | – |
| AAUUUACAUGAGGAUCACCCAUGUGAGGAUAUAUGCAAACAAUUUUUAUUAAUAAAGCAUAGAAGGCGCGUGAU [JR_Exc1_Sub043] (Eterna round: R97, puzzle: Exclusion 1) | 90.5 nM | 65.7 nM | – | – | – | – |
| ACAAAGGUAGGAUAUCGGACUAUGGACAUGAGGAUCACCCAUGUGCGUCCAAUGCCCAACCGAGAAGGACCAACAG [Isindiedbe] (puzzle: Exclusion 5) | – | – | – | – | 43.7 nM | – |

| Sequence | apparent KD of MS2 coat protein (input ligand: FMN 200 uM) | apparent KD of MS2 coat protein (input ligand: none) | apparent KD of MS2 coat protein [1] | apparent KD of MS2 coat protein [2] | apparent KD of MS2 coat protein [3] | apparent KD of MS2 coat protein [4] |
| --- | --- | --- | --- | --- | --- | --- |
| ACAACAUGAGGAUCACCCAUGUGUGUUGUCCCAUGUGUGUAUAAGGAUAUAUGAAGGAAGGAGGAAUAGAAGGUAUAGAAGGAG [Am I even doing this right] (Eterna round: R96, puzzle: Exclusion NG 3) | 84.1 nM | 1200 nM | 9.25 nM | – | – | – |
| ACAACCGGAGGAUAUACGUAUUCAUCACUCAACGCGGAACGACAUGAGGAUCACCCAUGUAGAAGGCCGAGAGU [EX2 B.24] (Eterna round: R97, puzzle: Exclusion 2) | 13.5 nM | 16 nM | – | – | – | – |
| ACAACUGUUCCCAAGCUUUACAUGAGGAUCACCCAUGUUCGUCAAGAUUUGUACCAUCUAACGUAUGGCUCAAGUAC [Eternabot (L1) Solution 48] (Eterna round: R97, puzzle: Sensor, turn-off variant 1) | 23 nM | 24.6 nM | – | – | – | – |
| ACAAGAUCGGAAGGAUAUUGUACAUGAGGAUCACCCAUGUAAUAAAUGAGGAUCACGGAUGUAGACAAGAAGGUCCGGAUAAGA [Ostracism 4 - Jieux - Exclusion NG 2] (Eterna round: R96, puzzle: Exclusion NG 2) | 45.6 nM | 36.2 nM | 30.8 nM | – | – | – |
| ACAAGCUCUGUGGGUGGUGACAUGAGGAUCACCCAUGUUUUGCUCGUCUUGUGCCGGGCCCGGCGCCCGGGCCCGGC [-40.5, -69.4, A 8%] (Eterna round: R97, puzzle: Sensor, turn-off variant 1) | 261 nM | 715 nM | – | – | – | – |
| ACAAGCUUAAAAGGUGAUAACAUGAGGAUCACCCAUGUUCGUCUUAUAAAGAUCCUAUGUCGAAAGACAUAGGAUCA [Sensor 3, v1 - 68] (puzzle: Sensor v3, turn-off variant 1) | – | – | – | 18.8 nM | 39.4 nM | 20.9 nM |
| ACAAGCUUGUAAUGAUAGAACAUGAGGAUCACCCAUGUAAAUGGAAGAACCAAUUAGAUAAGAUAAACUCGUCUUAU [JR_STOV1_Sub002] (Eterna round: R97, puzzle: Sensor, turn-off variant 1) | 59.1 nM | 69.5 nM | – | – | – | – |
| ACAAGCUUUAGGCGUGUGAACAUGAGGAUCACCCAUGUAAAGUAGGUUAGGAGGUCUGUAAGGGAUGCUCGUCUUAU [JR_SWV3TOV1_Sub090] (puzzle: Sensor v3, turn-off variant 1) | – | – | – | 89.4 nM | 45.5 nM | 113 nM |
| ACAAGCUUUAGGCGUGUGAACAUGAGGAUCACCCAUGUAUUUUUGGUUAGGAGUUCUGUAAGGGAUGCUCGUCUUAU [JR_SWV3TOV1_Sub091] (puzzle: Sensor v3, turn-off variant 1) | – | – | – | 42.2 nM | 55.1 nM | 48.9 nM |
| ACAAGCUUUGUUGGGUGGUACAUGAGGAUCACCCAUGUUGCGCUCGUCUUGUGGGCCCGGGCCCGCGGCCCGGGCCC [-41.5, -69.6, A 12%] (Eterna round: R97, puzzle: Sensor, turn-off variant 1) | 545 nM | 663 nM | – | – | – | – |
| ACAAGCUUUUAGAUUCUUAACAUGAGGAUCACCCAUGUGCUCGUCUUAUUUUCCGGCGGGCCGCCGGAAAAGCUUGU (Eterna round: R97, puzzle: Sensor, turn-off variant 1) | 92.5 nM | 93.8 nM | – | – | – | – |
| ACAAGCUUUUAGAUUUUCAACAUGAGGAUCACCCAUGUUCGUCUUAGGCGAGUGCGAGUGCGGUGUACUCGUAUUAG [JL TOV1 3.85 sellena mod] (Eterna round: R97, puzzle: Sensor, turn-off variant 1) | 22.2 nM | 21.9 nM | – | – | – | – |
| ACAAGCUUUUUGUUCGUCUUAUAAUAAUAAAUAAAGAUAACAUGAGGAUCACCCAUGUAAAGAAGACGGCCUCAUGU [Sesor Array 20 - Jieux - Sensor v3, turn-off variant 2] (puzzle: Sensor v3, turn-off variant 2) | – | – | – | 785 nM | 233 nM | 1120 nM |
| ACAAGCUUUUUGUUCGUCUUAUACACUCCUAAUAAGAAAACAUGAGGAUCACCCAUGUAAGAAAUAAGAACUCAUGU [Sesor Array 1 - Jieux - Sensor v3, turn-off variant 2] (puzzle: Sensor v3, turn-off variant 2) | – | – | – | 225 nM | 303 nM | 213 nM |
| ACAAGUUUUUAGAUUCUUAACAUGAGGAUCACCCAUGUGCUCGUCUUGUUUGUACUAUCACCGCCGGUGAUAGUACA (Eterna round: R97, puzzle: Sensor, turn-off variant 1) | 65 nM | 81 nM | – | – | – | – |
| ACAAUGUCAGGAUAUGAACAGCGCGGUCACAAGGAUUGCUUUCAGAAGGGACAUGAGGAUCACCCAUGUCGAUA [Eternabot (L1) Solution 91] (Eterna round: R97, puzzle: Exclusion 4) | 23 nM | 20 nM | – | – | – | – |
